Data taken from publication PMC7876108, “Cryo-EM structures of engineered active bc1-cbb3 type CIII2CIV super-complexes and electronic communication between the complexes” (Nature Communications, 2021).

T1: cytochrome cy, full length (membrane-anchored) (Rhodobacter capsulatus, UniProt Q05389 1-199)
T1 construct: cytochrome cy (cycY), Rhodobacter capsulatus: 30-residue TMH, 69-residue linker, 100-residue cyt c domain; Only its TMH is resolved in map SC-2A; also called cyt cy; intact cyt cy; source: purified
T1 sequence (looked up): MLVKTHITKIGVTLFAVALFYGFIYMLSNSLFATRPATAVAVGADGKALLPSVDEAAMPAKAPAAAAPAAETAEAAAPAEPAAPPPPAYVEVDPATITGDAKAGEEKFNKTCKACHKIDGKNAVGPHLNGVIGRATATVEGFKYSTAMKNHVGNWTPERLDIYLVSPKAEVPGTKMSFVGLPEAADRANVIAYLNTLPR

T2: cytochrome c1, subunit of bc1-type CIII2 (Rhodobacter capsulatus, UniProt D5ANZ4 22-279)
T2 construct: cytochrome c1 (petC), Rhodobacter capsulatus; Stood within the CIII2 complex (FeS protein, cyt b, cyt c1; a dimer) in the cross-linking and in the cryo-EM maps of native CIII2; also called cyt c1; PetC; source: native CIII2 particles in the bipartite SC + cy sample
T2 sequence (looked up): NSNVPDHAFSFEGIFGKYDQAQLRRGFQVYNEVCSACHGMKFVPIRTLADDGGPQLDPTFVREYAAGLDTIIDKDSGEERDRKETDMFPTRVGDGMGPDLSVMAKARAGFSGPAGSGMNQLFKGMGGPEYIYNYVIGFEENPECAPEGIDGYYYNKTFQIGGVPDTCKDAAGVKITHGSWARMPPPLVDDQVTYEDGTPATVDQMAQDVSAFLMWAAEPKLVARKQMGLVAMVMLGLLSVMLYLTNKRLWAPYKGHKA

T3: CcoP, subunit of cbb3-type CIV (Rhodobacter capsulatus, UniProt D5ARP7 1-297)
T3 construct: CcoP subunit of the cbb3-type CIV, Rhodobacter capsulatus; Stood within purified CIV in the cross-linking
T3 sequence (looked up): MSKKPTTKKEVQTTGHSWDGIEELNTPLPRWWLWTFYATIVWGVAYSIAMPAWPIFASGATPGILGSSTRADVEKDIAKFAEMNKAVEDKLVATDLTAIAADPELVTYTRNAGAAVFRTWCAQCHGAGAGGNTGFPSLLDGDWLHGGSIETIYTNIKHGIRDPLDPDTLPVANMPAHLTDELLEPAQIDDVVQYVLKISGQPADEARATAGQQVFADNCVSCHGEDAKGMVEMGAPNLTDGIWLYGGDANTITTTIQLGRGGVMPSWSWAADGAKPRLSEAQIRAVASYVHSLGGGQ

B1: Rieske FeS protein, subunit of CIII2 (natural protein, Rhodobacter capsulatus)
chain: MSHAEDNAGTRRDFLYHATAATGVVVTGAAVWPLINQMNASADVKAMASIFVDVSAVEVGTQLTVKWRGKPVFIRRRDEKDIELARSVPLGALRDTSAENANKPGAEATDENRTLPAFDGTNTGEWLVMLGVCTHLGCVPMGDKSGDFGGWFCPCHGSHYDSAGRIRKGPAPRNLDIPVAAFVDETTIKLG
notes: Rieske FeS protein (petA), Rhodobacter capsulatus; TMH residues 11-49, external domain (ED) residues 50-191 in the model; also called PetA; FeS-ED (its external domain); source: R. capsulatus pYO76/YO12, subunit of the purified bipartite SC and of the native CIII2 particles in that sample
B2: cytochrome c2 (natural protein, Rhodobacter capsulatus, UniProt P00094 22-137, looked up)
chain: GDAAKGEKEFNKCKTCHSIIAPDGTEIVKGAKTGPNLYGVVGRTAGTYPEFKYKDSIVALGASGFAWTEEDIATYVKDPGAFLKEKLDDKKAKTGMAFKLAKGGEDVAAYLASVVK
notes: soluble cytochrome c2, Rhodobacter capsulatus; also called cyt c2; source: purified R. capsulatus cyt c2
B3: cytochrome b, subunit of CIII2 (natural protein, Rhodobacter capsulatus)
chain: MSGIPHDHYEPKTGIEKWLHDRLPIVGLVYDTIMIPTPKNLNWWWIWGIVLAFTLVLQIVTGIVLAMHYTPHVDLAFASVEHIMRDVNGGWAMRYIHANGASLFFLAVYIHIFRGLYYGSYKAPREITWIVGMVIYLLMMGTAFMGYVLPWGQMSFWGATVITGLFGAIPGIGPSIQAWLLGGPAVDNATLNRFFSLHYLLPFVIAALVAIHIWAFHTTGNNNPTGVEVRRTSKADAEKDTLPFWPYFVIKDLFALALVLLGFFAVVAYMPNYLGHPDNYVQANPLSTPAHIVPEWYFLPFYAILRAFAADVWVVILVDGLTFGIVDAKFFGVIAMFGAIAVMALAPWLDTSKVRSGAYRPKFRMWFWFLVLDFVVLTWVGAMPTEYPYDWISLIASTYWFAYFLVILPLLGATEKPEPIPASIEEDFNSHYGNPAE
notes: cytochrome b (petB), Rhodobacter capsulatus; also called cyt b; PetB
B4: cyt c1-CcoP fusion subunit of the bipartite SC (His8) (other, Rhodobacter capsulatus, UniProt D5ANZ4 22-279, looked up)
chain: NSNVPDHAFSFEGIFGKYDQAQLRRGFQVYNEVCSACHGMKFVPIRTLADDGGPQLDPTFVREYAAGLDTIIDKDSGEERDRKETDMFPTRVGDGMGPDLSVMAKARAGFSGPAGSGMNQLFKGMGGPEYIYNYVIGFEENPECAPEGIDGYYYNKTFQIGGVPDTCKDAAGVKITHGSWARMPPPLVDDQVTYEDGTPATVDQMAQDVSAFLMWAAEPKLVARKQMGLVAMVMLGLLSVMLYLTNKRLWAPYKGHKASKKPTTKKEVQTTGHSWDGIEELNTPLPRWWLWTFYATIVWGVAYSIAMPAWPIFASGATPGILGSSTRADVEKDIAKFAEMNKAVEDKLVATDLTAIAADPELVTYTRNAGAAVFRTWCAQCHGAGAGGNTGFPSLLDGDWLHGGSIETIYTNIKHGIRDPLDPDTLPVANMPAHLTDELLEPAQIDDVVQYVLKISGQPADEARATAGQQVFADNCVSCHGEDAKGMVEMGAPNLTDGIWLYGGDANTITTTIQLGRGGVMPSWSWAADGAKPRLSEAQIRAVASYVHSLGGGQ
notes: cytochrome c1 (petC), Rhodobacter capsulatus; stop codon eliminated, no linker to CcoP; CcoP subunit of the cbb3-type CIV, Rhodobacter capsulatus; start codon eliminated; About 65 kDa; Stood within the bipartite SC; also called petC::ccoP-His8; source: R. capsulatus pYO76/YO12, subunit of the purified bipartite SC; not shown: His8, C-terminal, kept

How the values were obtained:
[1] = target: T1, cytochrome cy, full length …; assay: cross-linking; XL-MS: cyt cy with CIII2CIV, DMTMM; conditions: both partners purified
[2] = target: B3; assay: cryo-EM structure; native CIII2 particles in the bipartite SC + cy samples; maps CIII2 (3.3 A), CIII2 c-c (3.8 A), b-c (4.2 A), b-b (3.5 A); conditions: both partners purified
[3] = target: T2, cytochrome c1, subunit of bc1-type CIII2; assay: as above; conditions: both partners purified
[4] = target: T2, cytochrome c1, subunit of bc1-type CIII2; assay: cross-linking; XL-MS: 300 ug purified bc1-type CIII2 with 2-fold molar excess of cyt c2, 20 mM DMTMM, 1 h, room temperature, low salt (20 mM Na-phosphate pH 7.4, 1 mM NaCl, 0.01% DDM); conditions: both partners purified
[5] = target: T3, CcoP, subunit of cbb3-type CIV; assay: cross-linking; XL-MS: 300 ug purified cbb3-type CIV with 2-fold molar excess of cyt c2, 20 mM DMTMM, 1 h, room temperature, low salt (20 mM Na-phosphate pH 7.4, 1 mM NaCl, 0.01% DDM); conditions: both partners purified
[6] = target: the molecule itself; assay: cryo-EM structure; purified bipartite SC mixed with 5-fold molar excess of purified cyt cy; map SC-2A, 5.2 A; models fitted as rigid bodies
[7] = target: B3; assay: as above; conditions: both partners purified

Binder: B1
- binding result [1]: binds
- binding result [2]: binds
- binding result [3]: binds

Binder: B2
- binding result [4]: binds
- binding result [5]: binds

Binder: B3
- binding result [6]: binds

Binder: B4
- binding result [1]: binds
- binding result [7]: binds
